According to the supplement of paper PMC9732359:
± gives the uncertainty stated by the source.

Test: protein stability index of a GFP-peptide fusion (yeast GPS) (PSI 1-4); higher = more stable; sorted into four equal gates, so the index is relative within each strain
Conditions: doa10∆
Outline: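 Tiled yeast protein peptides of 17 residues were each joined downstream of GFP, on plasmids that also express Cherry. The pooled library was maintained in yeast, and mid-log cultures in leucine-free medium were sorted into four equal gates on the GFP/Cherry ratio. Plasmids from every gate were amplified by PCR and sequenced on Illumina, with barcodes linking reads to strains. The protein stability index of a peptide is its gate-number-weighted read frequency summed over the gates.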

| Sequence | protein stability index |
| --- | --- |
| PSQGVHYKVPTDTSTTA [MED6] | 2.34 ± 0.043 |
| PSSQSQNDTPMFKLGNF [YLR018C/POM34] | 2.54 ± 0.044 |
| PSTGFKFSLPFEQKGSQ [YLR335W/NUP2] | 2.99 ± 0.11 |
| PSYTHVLISKLSCEKIT [RRI1] | 2.18 ± 0.04 |
| PTDDKTLKPTFSFTEPA [YOR098C/NUP1] | 3.14 ± 0.088 |
| PTHYKIPAWFLNRQNDI [RPS18A] | 2.12 ± 0.065 |
| PTIRSNAVLGLGDMAVC [YCS4] | 1.61 ± 0.088 |
| PTQTVAELDLMSGILHC [RPN6] | 2.8 ± 0.06 |
| PTSDEPVPESAGKADTS [SRB4] | 2.86 ± 0.085 |
| PTTNEPAKPALSFGTAT [YJL041W/NSP1] | 2.97 ± 0.074 |
| PVGRELDPISLILIPGE [RPN13] | 2.65 ± 0.098 |
| PVIGVFQKFLTGHPKGA [FAS2] | 3.34 ± 0.19 |
| PVLKKKAAFLGSEVRLR [COR1] | 2.91 ± 0.074 |
| PVNSADGKEDVEKGTPL [SME1] | 3.45 ± 0.12 |
| PVQIVKRITQITIEPGV [RPS20] | 1.74 ± 0.15 |
| PVQSKFGRKKRKGGPAT [RPT2] | 3.47 ± 0.23 |
| PWCVKPEYLAMYGLTME [ITC1] | 2.27 ± 0.065 |
| PWYNNPVSCIIQNDEEY [PRP8] | 1.88 ± 0.13 |
| PYAIIKGKARLGTLVNQ [RPL8B] | 1.83 ± 0.058 |
| PYLLETYANVLIPCKYL [RPN7] | 1.32 ± 0.067 |
| PYSKNAVEQLAGCKIDN [YDL088C/ASM4] | 2.58 ± 0.089 |
| QAAGGLSIRLTNQLKSL [RPN8] | 2.75 ± 0.085 |
| QALIHGLNRHYYSLNID [RPN11] | 1.98 ± 0.15 |
| QANPTEESISKFPDMGS [RPB5] | 3.23 ± 0.082 |
| QAYEEIISSNENALIEL [YIL149C/MLP2] | 3.18 ± 0.064 |
| QAYQFLNTFGSKICLSH [ITC1] | 2.06 ± 0.076 |
| QDDDFPLDDAGTIGWDL [MCD1] | 3.04 ± 0.08 |

| Sequence | protein stability index |
| --- | --- |
| QDVLQMLGRAGRPRYDT [BRR2] | 3.41 ± 0.21 |
| QEAIQQNRRLAFEELEG [PRP8] | 2.24 ± 0.12 |
| QEDFEVVEEFTPVVLAT [RPS5] | 3.1 ± 0.091 |
| QEGKISSVYRLKFAVQV [RPL26A] | 3.09 ± 0.089 |
| QEGLITTTMLQLFSTFD [SSN2] | 2.58 ± 0.051 |
| QELQIKRDVLDDLYRKL [CSE2] | 2.27 ± 0.14 |
| QELRKKVNPNIMNMIEN [SMC2] | 2.45 ± 0.13 |
| QESLLSRTFDKYSKLVD [SRP72] | 2.83 ± 0.059 |
| QETQHGNITRGLAVGLA [RPN2] | 3.08 ± 0.074 |
| QFAPAFLNTPNNNINEN [SSN2] | 2.92 ± 0.067 |
| QFASPVRWIETQDVFLK [FAS2] | 2.3 ± 0.026 |
| QFEIPISDDDDSALRYS [POP4] | 2.98 ± 0.071 |
| QFISSRQFEVKQLQLAM [POP1] | 2.24 ± 0.051 |
| QFNAITGLNGSGKSNIL [SMC2] | 3.31 ± 0.17 |
| QFNATINPESREIVMPA [ITC1] | 1.87 ± 0.15 |
| QFPEIAYPGKLICPQYG [CSL4] | 2.01 ± 0.054 |
| QGIFKNSSNYFGELQFA [AAR2] | 2.36 ± 0.14 |
| QGITRNVVNYLSINKNF [RPC17] | 1.31 ± 0.059 |
| QHGFEVQVGPMKVFVTK [RPB7] | 2.26 ± 0.065 |
| QHIYPSSTPGVANYSAM [GAL11] | 2.85 ± 0.11 |
| QHLQQLKMQQQQQQQQQ [GAL11] | 2.21 ± 0.077 |
| QHLRNEHGMNAPSVPEF [SNF2] | 2.86 ± 0.1 |
| QHQSLSRSSSKNVNIED [ESC2] | 2.83 ± 0.18 |
| QIEKKEIKKMIITNINA [YCG1] | 2.64 ± 0.11 |
| QIEKKKICRGRMNTIIT [SIR4] | 3.52 ± 0.17 |
| QIIQRDKINKYSLIRET [SNF5] | 1.39 ± 0.093 |
| QIISGNRVPDGFQDRSL [RPO31] | 3.17 ± 0.13 |

| Sequence | protein stability index |
| --- | --- |
| QINNVHLIPNEIKGASE [RPN4] | 2.84 ± 0.064 |
| QINPTRETNDDIWRVAG [SNF2] | 2.6 ± 0.064 |
| QKIMILQRTILNRIINH [RGR1] | 1.81 ± 0.068 |
| QKKVLIDGPKAGVPRQA [RPL14A] | 3.45 ± 0.087 |
| QKRQLHDISKTETSNED [SNU114] | 3.06 ± 0.049 |
| QKSFEQLNSRAVAVVVD [RPN11] | 1.45 ± 0.12 |
| QKVLNAHRQRAMEARSS [SMC4] | 1.95 ± 0.12 |
| QLAGKSGEDTNVGLPIL [YOR098C/NUP1] | 2.86 ± 0.15 |
| QLAVRAPKGQNTLILRG [RPL18A] | 2.86 ± 0.28 |
| QLDEFKNKYLKDVLAQT [SWP82] | 2.52 ± 0.12 |
| QLDSYLVNGFSQSQQKL [MED2] | 2.02 ± 0.05 |
| QLEDESSRLEFVKGISR [YML103C/NUP188] | 3.45 ± 0.095 |
| QLFNWCLMRSLHKLELK [DSN1] | 1.17 ± 0.058 |
| QLFSTFDRLNGNDTISK [SSN2] | 3.03 ± 0.15 |
| QLIFRQQTGLVDAITRC [SNU114] | 2.97 ± 0.087 |
| QLKYDTSVQEKELMLQS [YIL149C/MLP2] | 2.23 ± 0.11 |
| QLLDIAEFKKENLADLD [LIN1] | 1.48 ± 0.092 |
| QLNEKLVGRLRKCETQK [YCS4] | 2.03 ± 0.086 |
| QLVYKRGFGKINKQRVP [RPL7A] | 2.46 ± 0.071 |
| QMDQQLQYTALTGSPNN [ARP7] | 2.91 ± 0.11 |
| QMTQIMDIMEDFLRYIN [SNF2] | 1.21 ± 0.032 |
| QNAADLQQICRVRNKDI [RPL9A] | 2.82 ± 0.088 |
| QNDELTMGMRALLKLSV [DIS3] | 2.01 ± 0.094 |
| QNFAEFMTKLLEVANDL [IRR1] | 2.06 ± 0.11 |
| QNHNSKSTDNSAIRQVF [IRR1] | 2.61 ± 0.039 |
| QNIETRQLANLIPFIVK [NUT1] | 1.61 ± 0.054 |
| QNIMTLPDGKNGNLEEE [MED6] | 3.37 ± 0.064 |

| Sequence | protein stability index |
| --- | --- |
| QNKLFYITNADDSTKFQ [SIR3] | 2.96 ± 0.085 |
| QNNEQNPIDPFNIIREF [YDL116W/NUP84] | 3.07 ± 0.052 |
| QNRRLAFEELEGSWDRG [PRP8] | 2.91 ± 0.17 |
| QPAQPRESRIVSTEGNV [RPL21A] | 2.49 ± 0.07 |
| QPMISPDNSIFGDTKSE [SWI3] | 3.14 ± 0.059 |
| QPNARALERYDEAEGRF [SMC1] | 3.44 ± 0.12 |
| QPQQQLGDMENNLEKYP [RTT102] | 3.54 ± 0.092 |
| QPTPRSASNTAKSTPNT [GAL11] | 2.75 ± 0.061 |
| QQKQQQQQQQHQQQQQQ [SNF5] | 2.73 ± 0.033 |
| QQLRRALPDVVVKGLPD [RPO31] | 2.19 ± 0.069 |
| QQPNPLQDLISVYGLDD [ROX3] | 1.95 ± 0.073 |
| QQQQAAALANANNNINS [SWI1] | 2.51 ± 0.058 |
| QQQQQQQQQQQQQGQIP [SNF5] | 2.729 ± 0.023 |
| QQQTNALNGIDINTVNT [GRR1] | 3.31 ± 0.053 |
| QQRFQALQQQQQQQQNQ [SWI1] | 2.05 ± 0.05 |
| QQTGLVDAITRCYQPFE [SNU114] | 2.53 ± 0.069 |
| QRDLGLYVVGLFDTYHA [RRP6] | 2.38 ± 0.046 |
| QRDLYKRKEELVSTLTT [SMC2] | 2.14 ± 0.073 |
| QRFVGHKSDVMSVDIDK [ASC1] | 3.04 ± 0.095 |
| QRIAKNDPEYMDTSDDA [DLS1] | 3.01 ± 0.16 |
| QRILEVLGTPDQKIWPY [SSN3] | 2.2 ± 0.076 |
| QRTATLCLEKLMCLSSK [YCS4] | 1.6 ± 0.049 |
| QRTLSKSFYSTATGAAS [CYT1] | 1.98 ± 0.06 |
| QRVFKPVDITMMENYQN [PRP8] | 2.43 ± 0.063 |
